In this series the test system is Escherichia coli TOP10. Kind of series: shrunken log2 fold change of peptide-encoding DNA abundance (4.5 h post-induction vs induction); higher = less antimicrobial activity (less host growth inhibition). Particulars: time post-induction: 4.5 h; library: site-saturation at positions 5, 18, 19, 20.
In the case of RRIRRRPPRLPRPRPRPRIGPRP, the “shrunken log2 fold change” value was 0.0791.

Turning to RRIRHRPPRLPRPRPRPRVVPRP, the “shrunken log2 fold change” value came out at 0.072.

With RRIRTRPPRLPRPRPRPHIGPRP, the “shrunken log2 fold change” value is -0.156.

As to RRIRCRPPRLPRPRPRPFFVPRP, the “shrunken log2 fold change” value is -0.209.

Regarding RRIRKRPPRLPRPRPRPYTTPRP, the “shrunken log2 fold change” value was -0.0326.

For RRIRFRPPRLPRPRPRPTQIPRP, the “shrunken log2 fold change” value worked out at 0.0911.

RRIRKRPPRLPRPRPRPGESPRP: the “shrunken log2 fold change” value was 0.0841.

Consider RRIRSRPPRLPRPRPRPTNQPRP, for which the “shrunken log2 fold change” value is -0.311.

Consider RRIRNRPPRLPRPRPRPYIPPRP, for which the “shrunken log2 fold change” value is -0.36.

Take RRIRERPPRLPRPRPRPSMWPRP: the “shrunken log2 fold change” value is -0.0377.

As to RRIRCRPPRLPRPRPRPECQPRP, the “shrunken log2 fold change” value came out at 0.511.

In the case of RRIRPRPPRLPRPRPRPAMRPRP, the “shrunken log2 fold change” value turned out to be 0.973.

Take RRIRLRPPRLPRPRPRPTHKPRP: the “shrunken log2 fold change” value was 0.38.

Take RRIRRRPPRLPRPRPRPPRMPRP: the “shrunken log2 fold change” value is 0.94.

Consider RRIRQRPPRLPRPRPRPWWMPRP, for which the “shrunken log2 fold change” value is -0.0322.

For RRIRKRPPRLPRPRPRPCPPPRP, the “shrunken log2 fold change” value was determined as 0.0811.

Consider RRIRQRPPRLPRPRPRPKAVPRP, for which the “shrunken log2 fold change” value is -0.00151.

As for RRIRTRPPRLPRPRPRPFSFPRP, the “shrunken log2 fold change” value was -0.341.

Take RRIRDRPPRLPRPRPRPFRPPRP: the “shrunken log2 fold change” value stood at 0.0778.

In the case of RRIRIRPPRLPRPRPRPEWVPRP, the “shrunken log2 fold change” value is 0.00655.

As to RRIRTRPPRLPRPRPRPKVMPRP, the “shrunken log2 fold change” value is -0.243.

For RRIRIRPPRLPRPRPRPDYNPRP, the “shrunken log2 fold change” value was -0.998.

Regarding RRIRMRPPRLPRPRPRPQFTPRP, the “shrunken log2 fold change” value came out at 0.095.

On to RRIRMRPPRLPRPRPRPCWVPRP, for which the “shrunken log2 fold change” value worked out at 0.827.

Consider RRIRIRPPRLPRPRPRPAELPRP, for which the “shrunken log2 fold change” value is -0.0331.

In the case of RRIRQRPPRLPRPRPRPHCAPRP, the “shrunken log2 fold change” value was found to be 0.0396.

As to RRIRKRPPRLPRPRPRPAKWPRP, the “shrunken log2 fold change” value was found to be 0.26.

Consider RRIRCRPPRLPRPRPRPDEWPRP, for which the “shrunken log2 fold change” value is -0.0372.

On to RRIRVRPPRLPRPRPRPSRKPRP, for which the “shrunken log2 fold change” value stood at 0.00977.

In the case of RRIRYRPPRLPRPRPRPYIVPRP, the “shrunken log2 fold change” value was -0.496.

As to RRIRPRPPRLPRPRPRPEWCPRP, the “shrunken log2 fold change” value is -0.0771.

Turning to RRIRARPPRLPRPRPRPYKSPRP, the “shrunken log2 fold change” value is -0.441.

In the case of RRIRMRPPRLPRPRPRPHLQPRP, the “shrunken log2 fold change” value stood at 0.0376.

For the sequence RRIRIRPPRLPRPRPRPFCCPRP, the “shrunken log2 fold change” value was -0.205.

Regarding RRIRFRPPRLPRPRPRPNTWPRP, the “shrunken log2 fold change” value was -0.277.

Consider RRIRARPPRLPRPRPRPLHEPRP, for which the “shrunken log2 fold change” value stood at 0.314.

Regarding RRIRRRPPRLPRPRPRPLNPPRP, the “shrunken log2 fold change” value was -0.00196.

Regarding RRIRIRPPRLPRPRPRPMADPRP, the “shrunken log2 fold change” value is -0.0382.

On to RRIRSRPPRLPRPRPRPECMPRP, for which the “shrunken log2 fold change” value worked out at 0.00574.

Take RRIRKRPPRLPRPRPRPADQPRP: the “shrunken log2 fold change” value was -0.0199.

As for RRIRKRPPRLPRPRPRPTCNPRP, the “shrunken log2 fold change” value worked out at 0.198.

Turning to RRIRTRPPRLPRPRPRPDPEPRP, the “shrunken log2 fold change” value came to 0.155.

With RRIRARPPRLPRPRPRPFGIPRP, the “shrunken log2 fold change” value was found to be 0.0411.

With RRIRNRPPRLPRPRPRPRPEPRP, the “shrunken log2 fold change” value was 0.295.

As to RRIRSRPPRLPRPRPRPCPPPRP, the “shrunken log2 fold change” value is -0.244.

In the case of RRIRGRPPRLPRPRPRPPWLPRP, the “shrunken log2 fold change” value amounted to 0.849.

With RRIRTRPPRLPRPRPRPQKTPRP, the “shrunken log2 fold change” value is -0.0581.

In the case of RRIRHRPPRLPRPRPRPSYTPRP, the “shrunken log2 fold change” value was -0.714.

Consider RRIRGRPPRLPRPRPRPHKHPRP, for which the “shrunken log2 fold change” value turned out to be 0.0984.

As to RRIRRRPPRLPRPRPRPNKAPRP, the “shrunken log2 fold change” value was found to be 0.158.

For RRIRKRPPRLPRPRPRPWCSPRP, the “shrunken log2 fold change” value was -0.155.

On to RRIRGRPPRLPRPRPRPEYQPRP, for which the “shrunken log2 fold change” value was 0.416.

In the case of RRIRWRPPRLPRPRPRPYRMPRP, the “shrunken log2 fold change” value amounted to 0.0292.

As for RRIRPRPPRLPRPRPRPGDLPRP, the “shrunken log2 fold change” value was 0.076.

With RRIRMRPPRLPRPRPRPLYNPRP, the “shrunken log2 fold change” value was -0.335.

As for RRIRKRPPRLPRPRPRPIKAPRP, the “shrunken log2 fold change” value amounted to 0.211.

Regarding RRIRDRPPRLPRPRPRPEEAPRP, the “shrunken log2 fold change” value worked out at 2.05.

As to RRIRIRPPRLPRPRPRPPHWPRP, the “shrunken log2 fold change” value was determined as 0.0943.

As to RRIRLRPPRLPRPRPRPKNMPRP, the “shrunken log2 fold change” value was -0.448.

On to RRIRVRPPRLPRPRPRPDDLPRP, for which the “shrunken log2 fold change” value is -0.0407.

RRIRWRPPRLPRPRPRPHPVPRP: the “shrunken log2 fold change” value was -0.0118.

In the case of RRIRIRPPRLPRPRPRPTTMPRP, the “shrunken log2 fold change” value was -0.394.

As for RRIRIRPPRLPRPRPRPKTAPRP, the “shrunken log2 fold change” value is -0.143.

For RRIRSRPPRLPRPRPRPCAGPRP, the “shrunken log2 fold change” value is -0.0708.

RRIRRRPPRLPRPRPRPFHMPRP: the “shrunken log2 fold change” value was -0.0949.

With RRIRGRPPRLPRPRPRPTNTPRP, the “shrunken log2 fold change” value was 0.676.

Regarding RRIRNRPPRLPRPRPRPVFWPRP, the “shrunken log2 fold change” value came out at 0.219.

On to RRIRGRPPRLPRPRPRPYINPRP, for which the “shrunken log2 fold change” value is -0.151.

Regarding RRIRSRPPRLPRPRPRPSWMPRP, the “shrunken log2 fold change” value was -0.0505.

Take RRIRIRPPRLPRPRPRPLSKPRP: the “shrunken log2 fold change” value is -0.901.

On to RRIRYRPPRLPRPRPRPVCFPRP, for which the “shrunken log2 fold change” value is -0.674.

As to RRIRTRPPRLPRPRPRPVWEPRP, the “shrunken log2 fold change” value was 0.264.

In the case of RRIRNRPPRLPRPRPRPQNRPRP, the “shrunken log2 fold change” value was -0.184.

Consider RRIRERPPRLPRPRPRPPHQPRP, for which the “shrunken log2 fold change” value is -0.0506.

In the case of RRIRDRPPRLPRPRPRPASLPRP, the “shrunken log2 fold change” value is 0.416.

Consider RRIRERPPRLPRPRPRPSYKPRP, for which the “shrunken log2 fold change” value was -1.27.

As for RRIRARPPRLPRPRPRPCPVPRP, the “shrunken log2 fold change” value was 0.0768.

Turning to RRIRHRPPRLPRPRPRPRPYPRP, the “shrunken log2 fold change” value turned out to be 0.0624.

Regarding RRIRARPPRLPRPRPRPCEYPRP, the “shrunken log2 fold change” value was -0.133.

As for RRIRHRPPRLPRPRPRPCGWPRP, the “shrunken log2 fold change” value turned out to be 0.353.

As to RRIRYRPPRLPRPRPRPFFKPRP, the “shrunken log2 fold change” value was -0.518.

In the case of RRIRLRPPRLPRPRPRPNGLPRP, the “shrunken log2 fold change” value is -0.0171.

For the sequence RRIRIRPPRLPRPRPRPRSEPRP, the “shrunken log2 fold change” value was -0.0944.

For RRIRYRPPRLPRPRPRPHYMPRP, the “shrunken log2 fold change” value was -1.45.

Turning to RRIRMRPPRLPRPRPRPFGWPRP, the “shrunken log2 fold change” value turned out to be 0.32.

In the case of RRIRGRPPRLPRPRPRPYTEPRP, the “shrunken log2 fold change” value is -0.0586.

Regarding RRIRWRPPRLPRPRPRPFAVPRP, the “shrunken log2 fold change” value is 0.157.

As to RRIRPRPPRLPRPRPRPALWPRP, the “shrunken log2 fold change” value came to 0.612.

Regarding RRIRPRPPRLPRPRPRPQPTPRP, the “shrunken log2 fold change” value is -0.0242.

Take RRIRNRPPRLPRPRPRPWECPRP: the “shrunken log2 fold change” value was -0.00145.

Consider RRIRMRPPRLPRPRPRPMRYPRP, for which the “shrunken log2 fold change” value is -0.0558.

Source of the values: the supplement of paper PMC9112550, “Optimization of the antimicrobial peptide Bac7 by deep mutational scanning” (BMC Biology, 2022).
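Note: peptides expressed intracellularly from a pBAD plasmid library in pooled LB shake-flask culture, induced with 0.3% L-arabinose, DNA abundance read by NGS, three biological replicates, DESeq2 with apeglm shrinkage.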
